Consider one substance from publication doi:10.1101/116178.

The test deals with RFP-p62 (UniProt Q13501). Kind of test: co-IP.

Consider “mHTT aa1-1212 138Q-C6R (domain or fragment)”, for which the fold binding against cleavable mHTT was 2 fold.
